Reference: patent publication US20200087373A1 (UNIVERSITY OF COPENHAGEN, published 2020)
Ends that are not written are not given here. * marks the point of attachment. C16 diacid = O=C(O)CCCCCCCCCCCCCCC(=O)*

T1: human GIP receptor (human, UniProt P48546 22-466)
T1 construct: whole, on cells; also called hGIPR
T1 sequence (looked up): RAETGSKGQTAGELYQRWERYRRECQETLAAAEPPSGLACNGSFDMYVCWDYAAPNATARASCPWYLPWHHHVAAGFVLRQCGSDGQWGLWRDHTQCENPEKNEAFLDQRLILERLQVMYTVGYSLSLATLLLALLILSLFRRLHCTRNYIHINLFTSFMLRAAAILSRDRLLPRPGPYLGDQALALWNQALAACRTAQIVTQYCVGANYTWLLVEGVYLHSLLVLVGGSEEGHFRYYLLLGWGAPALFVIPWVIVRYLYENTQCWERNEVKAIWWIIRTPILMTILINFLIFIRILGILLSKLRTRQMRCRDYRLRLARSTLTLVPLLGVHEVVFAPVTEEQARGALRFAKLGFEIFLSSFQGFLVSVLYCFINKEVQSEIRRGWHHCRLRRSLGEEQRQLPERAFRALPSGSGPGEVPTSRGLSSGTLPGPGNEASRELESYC

B1: AT171 [hGIP(5-30)NH2[D9K]-C16diacid/9] (peptide)
peptide: TFISK(C16 diacid)YSIAMDKIHQQDFVNWLLAQK-NH2
modifications: N-terminus assumed
SMILES: CC[C@H](C)[C@H](NC(=O)[C@H](CO)NC(=O)[C@H](Cc1ccc(O)cc1)NC(=O)[C@H](CCCCNC(=O)CCCCCCCCCCCCCCC(=O)O)NC(=O)[C@H](CO)NC(=O)[C@@H](NC(=O)[C@H](Cc1ccccc1)NC(=O)[C@@H](N)[C@@H](C)O)[C@@H](C)CC)C(=O)N[C@@H](C)C(=O)N[C@@H](CCSC)C(=O)N[C@@H](CC(=O)O)C(=O)N[C@@H](CCCCN)C(=O)N[C@H](C(=O)N[C@@H](Cc1c[nH]cn1)C(=O)N[C@@H](CCC(N)=O)C(=O)N[C@@H](CCC(N)=O)C(=O)N[C@@H](CC(=O)O)C(=O)N[C@@H](Cc1ccccc1)C(=O)N[C@H](C(=O)N[C@@H](CC(N)=O)C(=O)N[C@@H](Cc1c[nH]c2ccccc12)C(=O)N[C@@H](CC(C)C)C(=O)N[C@@H](CC(C)C)C(=O)N[C@@H](C)C(=O)N[C@@H](CCC(N)=O)C(=O)N[C@@H](CCCCN)C(N)=O)C(C)C)[C@@H](C)CC
B2: AT176 [hGIP(5-30)NH2[M14K]-C16diacid/14] (peptide)
peptide: TFISDYSIAK(C16 diacid)DKIHQQDFVNWLLAQK-NH2
modifications: N-terminus assumed
SMILES: CC[C@H](C)[C@H](NC(=O)[C@H](CO)NC(=O)[C@H](Cc1ccc(O)cc1)NC(=O)[C@H](CC(=O)O)NC(=O)[C@H](CO)NC(=O)[C@@H](NC(=O)[C@H](Cc1ccccc1)NC(=O)[C@@H](N)[C@@H](C)O)[C@@H](C)CC)C(=O)N[C@@H](C)C(=O)N[C@@H](CCCCNC(=O)CCCCCCCCCCCCCCC(=O)O)C(=O)N[C@@H](CC(=O)O)C(=O)N[C@@H](CCCCN)C(=O)N[C@H](C(=O)N[C@@H](Cc1c[nH]cn1)C(=O)N[C@@H](CCC(N)=O)C(=O)N[C@@H](CCC(N)=O)C(=O)N[C@@H](CC(=O)O)C(=O)N[C@@H](Cc1ccccc1)C(=O)N[C@H](C(=O)N[C@@H](CC(N)=O)C(=O)N[C@@H](Cc1c[nH]c2ccccc12)C(=O)N[C@@H](CC(C)C)C(=O)N[C@@H](CC(C)C)C(=O)N[C@@H](C)C(=O)N[C@@H](CCC(N)=O)C(=O)N[C@@H](CCCCN)C(N)=O)C(C)C)[C@@H](C)CC
B3: AT173 [hGIP(5-30)NH2[S11K]-C16diacid/11] (peptide)
peptide: TFISDYK(C16 diacid)IAMDKIHQQDFVNWLLAQK-NH2
modifications: N-terminus assumed
SMILES: CC[C@H](C)[C@H](NC(=O)[C@H](CCCCNC(=O)CCCCCCCCCCCCCCC(=O)O)NC(=O)[C@H](Cc1ccc(O)cc1)NC(=O)[C@H](CC(=O)O)NC(=O)[C@H](CO)NC(=O)[C@@H](NC(=O)[C@H](Cc1ccccc1)NC(=O)[C@@H](N)[C@@H](C)O)[C@@H](C)CC)C(=O)N[C@@H](C)C(=O)N[C@@H](CCSC)C(=O)N[C@@H](CC(=O)O)C(=O)N[C@@H](CCCCN)C(=O)N[C@H](C(=O)N[C@@H](Cc1c[nH]cn1)C(=O)N[C@@H](CCC(N)=O)C(=O)N[C@@H](CCC(N)=O)C(=O)N[C@@H](CC(=O)O)C(=O)N[C@@H](Cc1ccccc1)C(=O)N[C@H](C(=O)N[C@@H](CC(N)=O)C(=O)N[C@@H](Cc1c[nH]c2ccccc12)C(=O)N[C@@H](CC(C)C)C(=O)N[C@@H](CC(C)C)C(=O)N[C@@H](C)C(=O)N[C@@H](CCC(N)=O)C(=O)N[C@@H](CCCCN)C(N)=O)C(C)C)[C@@H](C)CC
B4: AT172 [hGIP(5-30)NH2[Y10K]-C16diacid/10] (peptide)
peptide: TFISDK(C16 diacid)SIAMDKIHQQDFVNWLLAQK-NH2
modifications: N-terminus assumed
SMILES: CC[C@H](C)[C@H](NC(=O)[C@H](CO)NC(=O)[C@H](CCCCNC(=O)CCCCCCCCCCCCCCC(=O)O)NC(=O)[C@H](CC(=O)O)NC(=O)[C@H](CO)NC(=O)[C@@H](NC(=O)[C@H](Cc1ccccc1)NC(=O)[C@@H](N)[C@@H](C)O)[C@@H](C)CC)C(=O)N[C@@H](C)C(=O)N[C@@H](CCSC)C(=O)N[C@@H](CC(=O)O)C(=O)N[C@@H](CCCCN)C(=O)N[C@H](C(=O)N[C@@H](Cc1c[nH]cn1)C(=O)N[C@@H](CCC(N)=O)C(=O)N[C@@H](CCC(N)=O)C(=O)N[C@@H](CC(=O)O)C(=O)N[C@@H](Cc1ccccc1)C(=O)N[C@H](C(=O)N[C@@H](CC(N)=O)C(=O)N[C@@H](Cc1c[nH]c2ccccc12)C(=O)N[C@@H](CC(C)C)C(=O)N[C@@H](CC(C)C)C(=O)N[C@@H](C)C(=O)N[C@@H](CCC(N)=O)C(=O)N[C@@H](CCCCN)C(N)=O)C(C)C)[C@@H](C)CC
B5: AT174 [hGIP(5-30)NH2[I12K]-C16diacid/12] (peptide)
peptide: TFISDYSK(C16 diacid)AMDKIHQQDFVNWLLAQK-NH2
modifications: N-terminus assumed
SMILES: CC[C@H](C)[C@H](NC(=O)[C@H](CCCCN)NC(=O)[C@H](CC(=O)O)NC(=O)[C@H](CCSC)NC(=O)[C@H](C)NC(=O)[C@H](CCCCNC(=O)CCCCCCCCCCCCCCC(=O)O)NC(=O)[C@H](CO)NC(=O)[C@H](Cc1ccc(O)cc1)NC(=O)[C@H](CC(=O)O)NC(=O)[C@H](CO)NC(=O)[C@@H](NC(=O)[C@H](Cc1ccccc1)NC(=O)[C@@H](N)[C@@H](C)O)[C@@H](C)CC)C(=O)N[C@@H](Cc1c[nH]cn1)C(=O)N[C@@H](CCC(N)=O)C(=O)N[C@@H](CCC(N)=O)C(=O)N[C@@H](CC(=O)O)C(=O)N[C@@H](Cc1ccccc1)C(=O)N[C@H](C(=O)N[C@@H](CC(N)=O)C(=O)N[C@@H](Cc1c[nH]c2ccccc12)C(=O)N[C@@H](CC(C)C)C(=O)N[C@@H](CC(C)C)C(=O)N[C@@H](C)C(=O)N[C@@H](CCC(N)=O)C(=O)N[C@@H](CCCCN)C(N)=O)C(C)C
B6: AT175 [hGIP(5-30)NH2[A13K]-C16diacid/13] (peptide)
peptide: TFISDYSIK(C16 diacid)MDKIHQQDFVNWLLAQK-NH2
modifications: N-terminus assumed
SMILES: CC[C@H](C)[C@H](NC(=O)[C@H](CCCCN)NC(=O)[C@H](CC(=O)O)NC(=O)[C@H](CCSC)NC(=O)[C@H](CCCCNC(=O)CCCCCCCCCCCCCCC(=O)O)NC(=O)[C@@H](NC(=O)[C@H](CO)NC(=O)[C@H](Cc1ccc(O)cc1)NC(=O)[C@H](CC(=O)O)NC(=O)[C@H](CO)NC(=O)[C@@H](NC(=O)[C@H](Cc1ccccc1)NC(=O)[C@@H](N)[C@@H](C)O)[C@@H](C)CC)[C@@H](C)CC)C(=O)N[C@@H](Cc1c[nH]cn1)C(=O)N[C@@H](CCC(N)=O)C(=O)N[C@@H](CCC(N)=O)C(=O)N[C@@H](CC(=O)O)C(=O)N[C@@H](Cc1ccccc1)C(=O)N[C@H](C(=O)N[C@@H](CC(N)=O)C(=O)N[C@@H](Cc1c[nH]c2ccccc12)C(=O)N[C@@H](CC(C)C)C(=O)N[C@@H](CC(C)C)C(=O)N[C@@H](C)C(=O)N[C@@H](CCC(N)=O)C(=O)N[C@@H](CCCCN)C(N)=O)C(C)C

Each binder was assayed against T1, human GIP receptor (assay: 125I-hGIP competition binding, COS-7 cells expressing hGIPR;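 further: nonspecific binding taken as radioligand bound by untransfected cells, binding buffer with or without 2% HSA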).
Procedure: (§1) After incubation, the cells were washed twice in ice-cold binding buffer (+/−2% HSA) and lysed using 200 mM NaOH with 1% SDS for 30 min. Nonspecific binding was determined as the binding of radioactive ligand to untransfected cells.

Row | Binder | IC50 [nM] | log IC50 [log M]
1 | B1 | 86 | -7.1
2 | B2 | 114 | -6.9
3 | B3 | 8 | -8.1
4 | B4 | 252 | -6.6
5 | B5 | 80 | -7.1
6 | B6 | 73 | -7.1

What follows are binders tested against T1, human GIP receptor (assay: 125I-hGIP competition binding, COS-7/hGIPR, 0.1% casein;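 further: nonspecific binding defined as radioligand binding measured on untransfected cells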).
Procedure: as §1

Row | Binder | IC50 [nM] | logIC50 [log M]
7 | B1 | 79.4 | -7.1
8 | B2 | 115 | -6.9
9 | B3 | 8.1 | -8.1
10 | B4 | 251 | -6.6
11 | B5 | 79.4 | -7.1
12 | B6 | 72.4 | -7.1

These binders were tested against T1, human GIP receptor (assay: IC50 with 2% HSA over IC50 with 0.1% casein, 125I-hGIP competition, COS-7/hGIPR).
Procedure: as §1

Row | Binder | Fold change HSA (2%)/Casein (0.1%) [fold]
13 | B1 | 8.3
14 | B2 | 4.9
15 | B3 | 7.4
16 | B4 | 3.8
17 | B5 | 3.5
18 | B6 | 7.8

What follows are binders tested against T1, human GIP receptor (assay: 125I-hGIP competition binding, COS-7/hGIPR, 2% HSA;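 further: nonspecific binding defined as radioligand binding to untransfected cells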).
Procedure: as §1

Row | Binder | IC50 [nM] | logIC50 [log M]
19 | B1 | 661 | -6.2
20 | B2 | 562 | -6.3
21 | B3 | 60.3 | -7.2
22 | B4 | 955 | -6
23 | B5 | 282 | -6.6
24 | B6 | 562 | -6.3

What follows are binders tested against T1, human GIP receptor (assay: cell-based or functional assay).

Row | Binder | cAMP agonism, Emax | cAMP antagonism [nM] | cAMP antagonism, log [log M] | cAMP agonism [nM] | cAMP agonism, EC50 (log) [log M]
25 | B1 | 0 | 35 | -7.5 | – | –
26 | B2 | 12 | 121 | -6.9 | 121 | -7
27 | B3 | 0 | 10 | -8 | – | –
28 | B4 | 0 | 259 | -6.6 | – | –
29 | B5 | 0 | 23 | -7.6 | – | –
30 | B6 | 0 | 17 | -7.8 | – | –
